Data published in patent US20070104719A1, “Caspase Activated Prodrugs Therapy” (Genentech, Inc., priority 2000, published 2007).
Starred links: 1 amine or outer side, 2 acyl side, 3 side chain; linkers in the order of their positions; H or OH if unused. Non-standard residues stand in square brackets, D forms with d. Residues, ends and D or L forms follow the SMILES beside them. *: point of attachment. Doxorubicin(3'-N) = COc1cccc2c1C(=O)c1c(O)c3c(c(O)c1C2=O)C[C@@](O)(C(=O)CO)C[C@@H]3O[C@H]1C[C@H](N*)[C@H](O)[C@H](C)O1; PABC = O=C(OCc1ccc(N[*:1])cc1)[*:2]

Experiments:
[1] = tested on: SK-BR-3 breast carcinoma cells; experiment: Cellular accumulation of doxorubicin and Ac-DEVD-PABC-doxorubicin (fluorescence); format: cell-based, human; details: SK-BR-3 cells, 10 μM, 0 to 2 h at 37° C.
Procedure: (§1) FIG. 1. Cellular accumulation of caspase cleavable prodrug Ac-DEVD-PABC-Doxorubicin in SK-BR-3 and MCF7 cells. Uptake of doxorubicin was estimated from a standard curve prepared using known quantities of doxorubicin that were added to the previously untreated cells.
(§2) SK-BR-3 and MCF7 breast carcinoma cells (American Type Culture Collection (ATCC), Rockville, Md.) were cultured in Dulbecco's modified Eagle's medium:Ham's nutrient F-12 (50:50) supplemented with […] glutamine, 100 units/mL penicillin, […] streptomycin (Gibco BRL, Grand Island, N.Y.), and 10% (w/v) bovine fetal serum (Hyclone, Logan, Utah) (cell media) at 37° C., 5% CO2. Adherantly growing cells were detached by treatment with phosphate-buffered saline containing 0.05% trypsin, 0.6 mM EDTA (5 min) and then resuspended at 10^6 cells per mL in fresh cell media. Cells were either used directly (“untreated”) or supplemented with doxorubicin or Ac-DEVD-PABC-doxorubicin into a final concentration of 10 μM. […] Fluorescence measurements were then undertaken using a fluorescent plate reader (Fluoroskan, Helsinki, Finland) with absorption and emission wavelengths of 485 and 590 nm respectively. Uptake of doxorubicin was estimated from a standard curve prepared using known quantities of doxorubicin that were added to the previously untreated cells.

[2] = tested on: MCF7 breast carcinoma cells; experiment: as above; format: cell-based, human; details: 10 μM, 0 to 2 h at 37° C.
Procedure: as §1, §2

[3] = molecular target: T1, recombinant human caspase 3 (Homo sapiens, UniProt P42574); experiment: Activation of Ac-DEVD-PABC-taxol by caspase 3 (HPLC); format: biochemical
T1 construct: purchased Calbiochem
T1 sequence (P42574 29-175 limits assumed): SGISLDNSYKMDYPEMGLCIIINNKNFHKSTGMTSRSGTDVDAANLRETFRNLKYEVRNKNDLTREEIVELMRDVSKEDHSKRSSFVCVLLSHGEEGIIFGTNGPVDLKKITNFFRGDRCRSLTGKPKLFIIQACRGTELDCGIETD
T1 sequence (P42574 176-277 limits assumed): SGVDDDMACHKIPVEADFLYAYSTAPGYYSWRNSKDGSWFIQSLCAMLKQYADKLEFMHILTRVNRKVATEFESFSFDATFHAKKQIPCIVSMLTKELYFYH
Procedure: Ac-DEVD-PABC-taxol (35 μM) was incubated with 1 ng recombinant human caspase 3 (Calbiochem) in the presence or absence of the caspase 3 inhibitor, Z-DEVD-FMK (400 μM) (Calbiochem) in phosphate-buffered saline containing 5% (v/v) dimethyl sulfoxide and 45 mM DTT in a total reaction volume of 700 μL. A control reaction was performed in which caspase 3 and inhibitor were omitted. Reactions were incubated for 0 to 2 h at 37° C. and then frozen in dry ice. Reactions were then analyzed by reverse phase HPLC using a Microsorb-MV C18 reverse-phase column (4.6 mm internal diameter×250 mm length, 5 μm particle size, 100 Å pore size) (Rainin) under isocratic conditions. 0.1% (v/v) TFA, 46% (v/v) acetonitrile at a now rate of 1.5 mL/min whilst monitoring the absorbance at 254 nm. The retention times for taxol and Ac-DEVD-PABC-taxol were 13.3 min 10.4 min, respectively.

[4] = molecular target: T2, recombinant commercial caspase 3 (Homo sapiens, UniProt P42574); experiment: Hydrolysis of Ac-DEVD-pna by caspase 3; format: biochemical
T2 construct: purchased
T2 sequence (P42574 29-175 limits assumed): T1 sequence (P42574 29-175 limits assumed)
T2 sequence (P42574 176-277 limits assumed): T1 sequence (P42574 176-277 limits assumed)
From the text: (§3) The most favorable substrates for caspases 2, 3 and 7 are DEHD (SEQ ID NO:8), DEVD (SEQ ID NO:3) and DEVD (SEQ ID NO:3) respectively. These sequences are very poor substrates for granzyme B which has the preferred substrate IEPD (SEQ ID NO:13) (Thornberry et al., (1997) supra) and for proinflammatory caspases (caspases 1, 4, 5, 11, 12, 13) which have a preference for a large hydrophobic residue at S4 (caspase 1 WEHD (SEQ ID NO:6), caspase 4 (W/L)EHD, caspase 5 (W/L)EHD).

granzyme B = granzyme B (Homo sapiens, UniProt P10144); experiment: Cleavage of Ac-DEVD-pna by granzyme B; format: biochemical
From the text: as §3

granzyme B, sequence (P10144 21-247, species assumed): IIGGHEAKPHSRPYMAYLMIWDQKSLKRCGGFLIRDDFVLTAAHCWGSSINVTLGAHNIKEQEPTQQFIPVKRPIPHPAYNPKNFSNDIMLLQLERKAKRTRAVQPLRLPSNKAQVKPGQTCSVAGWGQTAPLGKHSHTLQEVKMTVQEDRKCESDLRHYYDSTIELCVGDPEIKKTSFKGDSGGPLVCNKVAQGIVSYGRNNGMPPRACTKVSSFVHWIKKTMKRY

With `COc1cccc2c1C(=O)c1c(O)c3c(c(O)c1C2=O)C[C@@](O)(C(=O)CO)C[C@@H]3O[C@H]1C[C@H](NC(=O)OCc2ccc(NC(=O)[C@H](CC(=O)O)NC(=O)[C@@H](NC(=O)[C@H](CCC(=O)O)NC(=O)[C@H](CC(=O)O)NC(C)=O)C(C)C)cc2)[C@H](O)[C@H](C)O1` [Ac-DEVD-PABC-Doxorubicin, Ac-DEVD-PABC-doxorubicin] (Ac-DEVD[PABC]-{Doxorubicin(3'-N)}) the accumulation inside cells [1] was “did not” and the accumulation inside cells [2] was “did not”.
In the case of “Ac-DEVD-PABC-paclitaxel [Ac-DEVD-PABC-taxol]”, the “activation by caspase 3 (conversion to taxol)” value ([3]; 35 μM prodrug, 1 ng caspase 3) is reported as “efficiently activated”, the “Conversion (%)” value ([3]; Caspase 3 + inhibitor (Z-DEVD-FMK 400 μM), incubation time 0 min) is reported as 0% and the “Conversion (%)” value ([3]; Caspase 3 + inhibitor (Z-DEVD-FMK 400 μM), incubation time 30 min) is reported as 0%. For the same compound, the “Conversion (%)” value ([3]; Caspase 3 + inhibitor (Z-DEVD-FMK 400 μM), incubation time 120 min) was 0%, the “Conversion (%)” value ([3]; Caspase 3, incubation time 0 min) was 0% and the “Conversion (%)” value ([3]; Caspase 3, incubation time 30 min) was 65%. For the same compound, the “Conversion (%)” value ([3]; Caspase 3, incubation time 120 min) was 100%.
With “acetyl-L-Asp-L-Glu-L-Val-L-Asp-p-nitroanilide [Ac-DEVD-pna]” the “hydrolysis by caspase 3” value [4] was “readily hydrolyzed” and the “cleavage by granzyme B” value (granzyme B) was “no detectable cleavage”.
